From patent publication US20230295310A1 (ABCELLERA BIOLOGICS, published 2023) come the findings set out here.

Substitutions are numbered along the chain they refer to.

The target of one test is T1, human CD3e/g (human, UniProt P07766 23-126; P09693 23-116).
T1 construct: Bought soluble protein; also called hCD3e/g; human CD3e/g (Acro CDD-C52W4)
Nature of the test: SPR (Carterra LSA), mAb on chip. On the procedure: (§1) High-throughput surface plasmon resonance (SPR) coupled kinetic experiments were performed on a Carterra LSA® instrument equipped with an HC-30M chip type (Carterra, USA). The instrument uses two microfluidic modules, a single-flow cell (SFC) and a 96 printhead, to deliver samples to the chip surface via back-and-forth cycling of a fixed sample volume. An up to 384-ligand array is generated by docking the MFC onto each of the four nested print block locations in a serial manner.
(§2) The purified mAbs were immobilized on a Carterra LSA® HC-30M chip by direct coupling. The chip surface was first activated by flowing a freshly prepared 1:1:1 activation mix of 100 mM MES pH 5.5, 100 mM S-NHS, 400 mM EDC for 7 min. mAbs diluted to 10 μg/mL in 10 mM NaOAc pH 4.25+0.01% TWEEN®20 were then injected and printed onto the chip surface simultaneously using the MFC printhead for 10 min. Finally, the chip surface was quenched by flowing 1 M ethanolamine for 7 min (to block the excess reactive esters), followed by 2 wash steps of 15 s each in 25 mM MES pH 5.5. In addition to expressed and purified mAbs, relevant benchmarks and negative control mAbs were also printed on the chip surface.
(§3) The data were analyzed using the Carterra Kinetics analysis software. Briefly, the data were referenced with the interstitial reference spots and double-referenced to a buffer cycle, and then fit globally to a 1:1 Langmuir binding model to determine their apparent association (ka) and dissociation (kd) kinetic rate constants and binding affinity constants (KD).

The target in another test is T2, human CD3e/d (human, UniProt P07766 23-126; P04234 22-105).
T2 construct: Bought soluble protein; also called hCD3e/d; human CD3/ed (Sino CT038-H2508H)
Kind of test: SPR (Carterra LSA), mAb on chip. On the procedure:
as §1, §2, §3

T2 sequence (P07766 23-126, chain 1 of 2): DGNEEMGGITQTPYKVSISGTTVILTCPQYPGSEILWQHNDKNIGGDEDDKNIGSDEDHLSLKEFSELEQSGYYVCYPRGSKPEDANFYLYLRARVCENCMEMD
T2 sequence (P04234 22-105, chain 2 of 2): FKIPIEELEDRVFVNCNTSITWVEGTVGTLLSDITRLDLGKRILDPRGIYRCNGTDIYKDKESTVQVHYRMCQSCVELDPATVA
T1 sequence (P07766 23-126, chain 1 of 2): as the sequence (P07766 23-126, chain 1 of 2) above
T1 sequence (P09693 23-116, chain 2 of 2): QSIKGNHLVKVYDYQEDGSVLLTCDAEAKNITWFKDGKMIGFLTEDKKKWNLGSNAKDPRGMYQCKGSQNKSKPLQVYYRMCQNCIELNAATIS

B1: mAb 42 (antibody, V domains shown)
VH: QAQLVQSGSELKKPGASVKVSCKASGYTFTKHSMNWVRQAPGQGLEWMGWINTNTGNPTYAQGFTGRFVFSLDTSVTTAYLQISSLKAEDTAVYYCAREGDYDFWSGFFNFDYWGQGTLVTVSS
VL: DIQMTQSPSSLSASVGDRVTITCRASQGIRNDLGWYQQKPGKAPKRLIYAASSLQSGVPSRFSGSGSGAEFTLTISSLQPEDFATYYCLQHNSYPRTFGQGTKVEIK
notes: VH and VL only
For orientation: Kd means the concentration at which binding is half-saturated. Lower therefore signals tighter binding. Turning to B1, the Kd with human CD3e/g was 19.4 nM.

B2: mAb 55 (antibody, V domains shown)
VH: QVQLEQSGAEVKKPGASVKVSCKTSGYIFANYDINWVRQATGQGLEWMGWMNPKSGKAGYAQKFQGRVTMTSNTPINTAYMELSSLRSEDTAVYYCAREGHYDFWRGFYSFDYWGQGILVTVSS
VL: B1 VL with A50T, A69T, Y87F, H91Y, S93T, R96Y, V104L
notes: VH and VL only
As to B2, the Kd in the test with human CD3e/g is 85.7 nM.

B3: mAb 53 (antibody, V domains shown)
VH: QVQLVQSGAEVKKPGASVKVSCKASGYTFTSYDINWVRQATGQGLEWMGWMNPKSGKTGYAQKFQGRITMTRNTPISTVYMDLSSLRSEDTAVYYCAREGHYDFWTGYYSFDYWGQGTLVTVSS
VL: B1 VL with K39T, A69T, N92Y, R96Y, V104L
notes: VH and VL only
In turn, B3 showed a Kd with human CD3e/g of 258 nM.

B4: mAb 50 (antibody, V domains shown)
VH: B1 VH with K31R, S33A
VL: B1 VL with Y36F, K45T
notes: VH and VL only
The molecule B4 had a Kd with human CD3e/g of 34.3 nM.

B5: mAb 44 (antibody, V domains shown)
VH: B1 VH with K31R, S33A, T77S, Q82K, A97V
VL: B1 VL with Y36F, K45T
notes: VH and VL only
In the test with human CD3e/g, B5 yielded a Kd of 19.1 nM.

B6: mAb 47 (antibody, V domains shown)
VH: B1 VH
VL: B1 VL with A69T
notes: VH and VL only
The molecule B6 had a Kd in the test with human CD3e/g of 20.1 nM.

B7: mAb 43 (antibody, V domains shown)
VH: B1 VH with T59M
VL: B1 VL
notes: VH and VL only
As to B7, the Kd in the test with human CD3e/g was found to be 21.7 nM. The Kd values of the last two molecules are within 1.5-fold of each other.

B8: mAb 178 (antibody, V domains shown)
VH: EVQLVESGGGLVQPGRSLRLSCAASGFTFDDYTMHWVRQAPGKGLEWVSDISWNSGTIGYADSVKGRFTISRDNAKNSLYLQMNSLRAEDTALYYCVKDSSGYGHYYKYYMDVWGKGTTVTVSS
VL: DIQMTQSPSSLSASVGDRVTITCRASQSISNYLNWYQQKAGKVPKVLIYGSSSLQSGVPSRFSGSGSGTDFTLTISSLQPEDFASYYCQQTYSSPLTFGGGTKVDFK
notes: VH and VL only
As for B8, the Kd in the test with human CD3e/d was found to be 0.992 nM.

B9: mAb 119 (antibody, V domains shown)
VH: B8 VH with D50G, T57S, V97S, H105Y, Y107L, K108N, Y110S, M111L
VL: EIVMTQSPATLSVSPGERATLSCRASQSVSNLAWYQQKPGQAPRLLIYGASTRATGIPARFSGSGSGTEFTLTISSLQSEDFAVYYCQQYNNWPHFGQGTRLQIK
notes: VH and VL only
With B9, binding in the test with human CD3e/d was put at a Kd of 37.2 nM. This Kd is about 38-fold higher than that of the molecule before.

B10: mAb 179 (antibody, V domains shown)
VH: B8 VH with A40T, T57S, S78T, Y107L, K108Y
VL: DIQMTQSPSSLSASVGDRVTITCRASQSIRNYLNWYQQSPGRAPKLLIFSASSLQSGVPSRFSGSGSGTDFTLTISSLQPEDFVTYYCQQRYSTPITFGQGTRLEIK
notes: VH and VL only
In turn, B10 displayed a Kd with human CD3e/d of 7.72 nM.

B11: mAb 228 (antibody, V domains shown)
VH: EVQLLESGGGLVQPGGSLRLSCAASGFTFSNYAMNWVRQAPGKGLEWVSTISGSGGGKYYADSVKGRFTISRDNSKNTLYLHMNSLRAEDTAVYYCAKDPVQDRYYFYYYYMDVWGKGTTVTVSS
VL: EIVLTQSPDFQSVTPKEKVTITCRASQSIGSSLHWYQQKPDQSPKLLIKYASQSISGVPSRFSGSGSGTDFTLTINSLEAEDAAAYYCHQSSSLPHTFGQGTKLEIK
notes: VH and VL only
On to B11, for which the affinity in the test with human CD3e/d, expressed as Kd, was 25 nM.

B12: mAb 240 (antibody, V domains shown)
VH: QGKLVESGGGVVQPGRSLRLSCVASGFTFSGYGMHWVRQAPNKGLEWVAIIYYDGKNKYYADSVKGRFTISRDNSKNTLYLQLNSLRAEDTAVYYCVRGPGYNWFDPWGQGTLVTVSS
VL: B11 VL with S28N, Y50H, I55F, A85T, H96Y
notes: VH and VL only
B12 came in with a Kd with human CD3e/d of 18 nM.

B13: mAb 258 (antibody, V domains shown)
VH: EVQLLESGGGLVQPGGSLRLSCAASGFTFSNYAMNWVRQAPGKGLEWVSVISNSGGTRLYVDSVKGRFTISRDNSKNTLYLQMSSLRAADTAVYYCAKDAAAALYYYYFYYMDVWGKGTTVTVSS
VL: B11 VL with I55F, A85T, H96Y
notes: VH and VL only
In the test with human CD3e/d, B13 came in with a Kd of 24 nM.

B14: mAb 286 (antibody, V domains shown)
VH: EVKLVESGGGVVRPGGSLRLSCAASGFTFDDYGMSWVRQAPGKGLEWVSGISWNGGSTGYADSVKGRFTISRDNAKNSLYLQMNSLRAEDTALYHCARDGVPVVKRRYYYYYMDVWGKGTTVTVSS
VL: B11 VL with I55F, S65R, A85T, S92G, H96Q, L104V
notes: VH and VL only
In the case of B14, the Kd in the test with human CD3e/d is 580 nM.

B15: mAb 290 (antibody, V domains shown)
VH: B14 VH with K3Q
VL: B11 VL with V19I, I55F, A85T, S92A, H96Q, L104V
notes: VH and VL only
Turning to B15, in the test with human CD3e/d, the Kd was 3200 nM.

B16: mAb 230 (antibody, V domains shown)
VH: B11 VH with N31S, N35S, T50S, G57S, K58R, H82Q
VL: B11 VL
notes: VH and VL only
In the test with human CD3e/d, B16 displayed a Kd of 18 nM.

B17: mAb 177 (antibody, V domains shown)
VH: EVQLVESGGGLVQPGMSLRLSCAASGFTFDDYTMHWVRQSPGKGLEWVAGISWNSGTIGYGDSMKGRFTISRDNAKNSLDLQMNSLRVEDTALYYCAKDTSGYGHYYYYFMDVWGKGTTVTVSS
VL: DIQMTQSPSSLSASIGDRVSITCRTSQIINNYLNWYQQKPGKAPKLLIYSASSLQSGVPSRFSGSGSGTDFTLTLSSLQPEDFATYFCQQSYNFPITFGQGTRLELK
notes: VH and VL only; The printed VL holds a letter 'U'
For B17, the Kd in the test with human CD3e/d came to 41.1 nM. This Kd lies about 2.3-fold higher than the previous one.

B18: mAb 284 (antibody, V domains shown)
VH: EVQLLESGGGLVQPGGSLRLSCAASGFTFSSYAMSWVRQAPGKGLEWVSAISGSSGRTYYTDSVKGRFTISRDNSKNTLSLQMNSLRAEDTAVYYCAKKYSYYYYYMDVWGKGTTVTVSS
VL: SYELTQPLSVSVALGQTAKITCGGNNIGSKNVHWYQQKPGQAPVLVIYRDSNRPSGIPERFSGSNSGNTATLTISRAQAGDEADYYCQVWDSSTAVFGGGTQLTAL
notes: VH and VL only
The molecule B18 came in with a Kd with human CD3e/d of 450 nM.

B19: mAb 306 (antibody, V domains shown)
VH: EVQLLESGGGLVQPGGSLRLSCAASGFTFNSYAMSWVRQAPGRGLEWVSAISGRKSTTYYADSVKGRFTISRDNSKNTLYLQMNSLRAEDTAVYYCAKLWNYYYYYMDVWGKGTTVTVSS
VL: B18 VL with K19R, N31D
notes: VH and VL only
In the test with human CD3e/d, B19 displayed a Kd of 250 nM. Against the preceding molecule, the Kd is about 1.8-fold lower.

B20: mAb 318 (antibody, V domains shown)
VH: EGQLLESGGGLVQPGGSLRLSCAASGFTFSRYAMSWIRQAPGKGLEWVSVIDGSGGDKNYADSVKGRFTISRDNSKNSLYLLMNGLRVEDTAIYFCAKKFSYYYYYMDVWGKGTSVTVSS
VL: B18 VL with K19R, S29G, N31D, S93R
notes: VH and VL only
In turn, B20 registered a Kd with human CD3e/d of 84 nM.

B21: mAb 301 (antibody, V domains shown)
VH: EVQLLESGGGLVQPGGSRRLSCAASGFTFSSYAMSWVRQAPGKGLEWVSVISGRGDNTNYADSVKGRFTISRENSKNMLYLQMNSLRAEDTAVYYCAKKYSYYYYYMDVWGKGTTVTVSS
VL: B18 VL with K19R, N31D, S93R
notes: VH and VL only
On to B21, for which the dissociation constant (Kd) with human CD3e/d was found to be 110 nM.

B22: mAb 316 (antibody, V domains shown)
VH: B21 VH with S30R, S31T, S52N, N57D, E73D, M78I, Y80F
VL: B18 VL with K19R, N31D, S93R
notes: VH and VL only
On to B22, for which the Kd with human CD3e/d came to 70 nM.

B23: mAb 285 (antibody, V domains shown)
VH: B18 VH with V12G, S31N, A50V, S55G, R57D, T58K, Y59N, T61A, S80Y
VL: B18 VL with K19R, N31D, R76S, S93R
notes: VH and VL only
For B23, in the test with human CD3e/d, binding was put at a Kd of 150 nM. This Kd is about 2.1-fold higher than that of the molecule before.

B24: mAb 304 (antibody, V domains shown)
VH: B21 VH with M78I
VL: B18 VL with K19R, N31D, S93R
notes: VH and VL only
As for B24, in the test with human CD3e/d, the affinity, expressed as Kd, was 120 nM.

B25: mAb 77 (antibody, V domains shown)
VH: EVQLVESGGGLVQPGGSLRLSCAASGFTFSNYWMSWVRQAPGKGLEWVANIKQDGSEKYYVDSVRGRFTISRDNAKKSLYLQMNSLRAEDTAVYYCARDNSNYAYWYFDIWGRGTLVTVSS
VL: DIQMTQSPSTLSVSVGDRVTITCRASQSIRKWLAWYQQKPGKAPKLLIFKASSLESGVPSRFSGSGSGTEFTLTISSLQPDDFATYYCQQYDTYSRTFGQGTKVEIK
notes: VH and VL only
As to B25, the Kd with human CD3e/d is 286 nM. Against the preceding molecule, the Kd is about 2.4-fold higher.

B26: mAb 109 (antibody, V domains shown)
VH: QVQLVESGGGVVQPGRSLRLSCVASGFPFRSYGMHWVRQAPGKGLEWVAFIWYDGSNKYYADSVRGRFTISRDNFKKMVYLQMNSLRAEDTAVYYCARDLAGIYAFDVWGQGTVVTVSS
VL: EIVMTQSPATLSVSPGERATLSCRASQSVSSNLAWYQQKPGQAPRLLIYGASTRATGIPARFSGSGSGTEFTLTVSSLQSEDFAIYYCQQYNNWRPLTFGGGTKVEIK
notes: VH and VL only
In the test with human CD3e/d, B26 came in with a Kd of 21.7 nM.
